Laboratory results published in patent US20240209083A1.

Legend:
[1] = biological target: human TIM3 (isoform 1), membrane bound (human) (UniProt Q8TDQ0); test: flow cytometry, lung cancer TILs, CD8+ cells (lower panel), isotype staining
[2] = biological target: human TIM3 (isoform 1), membrane bound (human) (UniProt Q8TDQ0); test: flow cytometry, lung cancer TILs, CD4+ cells (upper panel), isotype staining
mouse TIM3 (mouse) = mouse TIM3 (mouse) (UniProt Q8VIM0); test: binding to activated mouse T cells (method not given)
Chain of mouse TIM3 (mouse) (Q8VIM0 20-281): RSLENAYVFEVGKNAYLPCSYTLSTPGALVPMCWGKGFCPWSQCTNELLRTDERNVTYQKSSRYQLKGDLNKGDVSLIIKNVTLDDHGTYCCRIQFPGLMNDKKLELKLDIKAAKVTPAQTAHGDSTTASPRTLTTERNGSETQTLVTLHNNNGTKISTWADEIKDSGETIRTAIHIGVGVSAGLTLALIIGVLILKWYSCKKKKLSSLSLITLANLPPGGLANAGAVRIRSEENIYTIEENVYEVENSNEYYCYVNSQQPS

% of cells in the quadrant PE isotype positive, APC isotype negative [1] [%] | % of cells in the quadrant PE isotype positive, APC isotype negative [2] [%] | EC50 (mouse TIM3 (mouse)) [nM] | fold weaker EC50 than TIM3.18 binding to human TIM-3 (mouse TIM3 (mouse)) [fold] | Substance
3.09 | 2.94 | – | – | Isotype (Comp-PE-A :: Isotype) (antibody)
– | – | 1.7 | 17 | rat anti-mouse TIM-3 antibody RMT3-23
